The experiment has as its target T1, His-CaM (native, Xenopus laevis) (Xenopus laevis, UniProt P0DP33 1-149).
T1 construct: calmodulin, Xenopus laevis, plasmid pET-15b-CaM [41]; also called native untreated CaM; recombinant His-CaM; source: E. coli BL21 (DE3), purified as previously described [8]
Kind of experiment: pull-down; GST proteins (5 μg) bound to glutathione-sepharose beads incubated with soluble recombinant CaM proteins (His-CaM forms, no-tagged wild-type CaM, Met-to-Leu mutants); 10 mM potassium phosphate pH 7.0, 100 mM KCl, 1% Brij; 2 mM Ca2+ or EGTA in Fig. 2E; western blot with CaM antibody. Conditions: both partners purified. (In western blotting, separated proteins are transferred to a membrane and probed.)

B1: GST-TRADD R235A (natural protein)
chain: MAAGQNGHEEWVGSAYLFVESSLDKVVLSDAYAHPQQKVAVYRALQAALAESGGSPDVLQMLKIHRSDPQLIVQLRFCGRQPCGRFLRAYREGALRAALQRSLAAALAQHSVPLQLELRAGAERLDALLADEERCLSCILAQQPDRLRDEELAELEDALRNLKCGSGARGGDGEVASAPLQPPVPSLSEVKPPPPPPPAQTFLFQGQPVVNRPLSLKDQQTFARSVGLKWRKVGASLQRGCRALRDPALDSLAYEYEREGLYEQAFQLLRRFVQAEGRRATLQRLVEALEENELTSLAEDLLGLTDPNGGLA
notes: TRADD, human, point mutant of GST-TRADD; also called R235A TRADD mutant; source: E. coli BL21 (DE3)
Turning to B1, the binding result is listed as “binds”.

The record behind these values is publication PMC4313936, “N-Terminal and C-Terminal Domains of Calmodulin Mediate FADD and TRADD Interaction” (PLoS ONE, 2015).
